Key:
281282 = experiment: BLI
340341 [1] = experiment: BLI
326327 [2] = experiment: BLI
277278 [3] = experiment: BLI
254255 [4] = experiment: BLI
250233 [5] = experiment: BLI
262231 [6] = experiment: BLI
252248 [7] = experiment: BLI
267268 [8] = experiment: BLI
239229 [9] = experiment: BLI
346343 [10] = experiment: BLI
256257 [11] = experiment: BLI
335338 [12] = experiment: BLI
260261 [13] = experiment: BLI
279280 [14] = experiment: BLI
340341 [15] = experiment: BLI; representative sensorgram
326327 [16] = experiment: BLI; representative sensorgram
277278 [17] = experiment: BLI; representative sensorgram
254255 [18] = experiment: BLI; representative sensorgram
250233 [19] = experiment: BLI; representative sensorgram
262231 [20] = experiment: BLI; representative sensorgram
252248 [21] = experiment: BLI; representative sensorgram
267268 [22] = experiment: BLI; representative sensorgram
239229 [23] = experiment: BLI; representative sensorgram
346343 [24] = experiment: BLI; representative sensorgram
256257 [25] = experiment: BLI; representative sensorgram
335338 [26] = experiment: BLI; representative sensorgram
260261 [27] = experiment: BLI; representative sensorgram
279280 [28] = experiment: BLI; representative sensorgram

B1: P. vivax Reticulocyte Binding Protein 2b, residues 161–1454 (domain or fragment)
chain: PSPESTQITNTTDNIDYFDISDESNYYLISQLRPHFSNIYFFDEFKRYASYHTEIKRYEDIHKTKVNSLLNEASRAIGICNRAKNTVKGLINILENPQKFKTQRESYDVKLRQYEEKKEAFRGCLLNKNRKNLDQIKKINNEIRDLLEKLKCSQDCQTNVYFDMIKIYLVDFKKMPYENYDTFIKQYKNSYLSGVDMIRKIEKQIDNPVTINAIKFTQKEMGYIIDRFEYHLQKVKHSIDQVTALSDGVKPKQVTKNRLKEYYFNIGNYYSIFKFGKDSLNMLNKALIHKEKIVHNLLGELFGHLEERISKLIDSEYFITESNNIISQSEETLKLAEDVYDKNTKLIEDLTLYPHLEINEFKKDYDNNVEDLRESIIYIQSYVSSIKSAYRYNVLEKDSVESKQKNIPANSNAQKKVDELLSIIDSISYSNFSVAENFQKMKDYYKEIEKLKIKILQLIEAIKKYQQHVEELINKEKAVAILKEDINKIIEYIKGIIEKLKQLISANKDFDKIFQQVEQLINEALFNKDQFEHNKNDLHTKMKEIMHTFHERDLQQFLDNMSKFLKDQEASYQNADSKEKLDQLLTTVKAKQDELKEMKCDDIPDIIDNLKKESQNVLNLKDEVINKQFENMRTEMSSSLDQMTKEYNALKSSIEEYEAEKKGIENHKQNIIKRKNTFIVAEHENDEDVPEGKNTYNEFISNKDTILQKESAISNQMNTLEEKKRNRKTTLQTYGDAIQKLETYTEKKDEETKVLLDKFNTEVENFKLDEDEKSFNDAKSIVSNTINEVENENKNIDSIKKVNIAMKRSRSNQQSVEQLIRNKDNLLKEKMEKHFQKINTDEIIGQSAKANLLNNLESEKAIINEQLNDAHLNDLKLQIEKTLSYCEKSRENIKGNNGTHPEELNASEIEWEATKGKIETLNSNYQALNKNMDDIINKQHDEMIVLIDRDIKEKGKDIELKVEQRIQALEKMKAKLSSFDTNEDVKKYQSDINKEELIKLKEMSTAVLNKIDQNKNQLINVKTKSSGYVAESNGIKNKQTEPSQEKDKQIVYNTNRGDIEKVYKNIRDMYNELDDVEKEETTSNEVDNIEMQYDRLLINLLVQKINEENTKAKGLMEEIKSYIENIESVQAKMSDETREGATEFEFNQYQQSSLANDKKITEIVQHAINKKGEAERSKKTNEVKSIKNDVNTYMQQVIDEYNAMQKALGDIKNVNDLLISTSGRRIAEEISKSTNEAENFEKQAKGELGKINDIIEKMENQMVQAKEHENKIHINLEDKQIDEEVQKIRQIHEE
modifications: DyLight 488 (NHS ester) in the FRET assay; biotin (BirA site) in the competition ELISA between human mAbs
B1 was tested, and the Kd 281282 was 27.3 pM, the koff 281282 was 6.03e-06 s⁻¹ and the Kd 340341 [1] was 107 pM. The koff 340341 [1] was 3.85e-05 s⁻¹, the Kd 326327 [2] was 642 pM and the koff 326327 [2] was 0.000246 s⁻¹. The Kd 277278 [3] was 79.6 pM, the koff 277278 [3] was 3.08e-05 s⁻¹ and the Kd 254255 [4] was 74.2 pM. The koff 254255 [4] was 2.52e-05 s⁻¹, the Kd 250233 [5] was 988 pM and the koff 250233 [5] was 0.00035 s⁻¹. It also gave a Kd 262231 [6] of 140 pM, a koff 262231 [6] of 6.22e-05 s⁻¹ and a Kd 252248 [7] of 586 pM. The koff 252248 [7] was 0.000193 s⁻¹, the Kd 267268 [8] was 213 pM and the koff 267268 [8] was 5.71e-05 s⁻¹. The Kd 239229 [9] was 112 pM, the koff 239229 [9] was 4.6e-05 s⁻¹ and the Kd 346343 [10] was < 10 pM. The koff 346343 [10] was < 1e-06 s⁻¹, the Kd 256257 [11] was < 10 pM and the koff 256257 [11] was < 1e-06 s⁻¹. For the same binder, the Kd 335338 [12] was 78.2 pM, the koff 335338 [12] was 3.08e-05 s⁻¹ and the Kd 260261 [13] was 20.5 pM. The koff 260261 [13] was 6.23e-06 s⁻¹, the Kd 279280 [14] was 727 pM and the koff 279280 [14] was 0.000194 s⁻¹. The Kd 340341 [15] was 79.4 pM, the Kd 326327 [16] was 500 pM and the Kd 277278 [17] was 18.9 pM. It also gave a Kd 254255 [18] of 15.7 pM, a Kd 250233 [19] of 1000 pM and a Kd 262231 [20] of 100 pM. For the same binder, the Kd 252248 [21] was 300 pM, the Kd 267268 [22] was 300 pM and the Kd 239229 [23] was 100 pM. The Kd 346343 [24] was < 10 pM, the Kd 256257 [25] was < 10 pM and the Kd 335338 [26] was 50.5 pM. For the same binder, the Kd 260261 [27] was < 10 pM and the Kd 279280 [28] was 800 pM.
